# Article PMC5748837, “Biochemical characterization of INTS3 and C9ORF80, two subunits of hNABP1/2 heterotrimeric complex in nucleic acid binding” (Biochemical Journal, 2017)
# Biological target: T1, GST-tagged N-terminal region of INTS3 (GST-INTS3^N, 1-513 amino acids) (human, UniProt Q68E01 1-513)
# T1 construct: Integrator complex subunit 3 (INTS3), human, N-terminal region, residues 1-513; pGEX-6P-1; source: E. coli Rosetta 2, purified (glutathione sepharose beads); not shown: GST, N-terminal, kept
# T1 sequence (Q68E01 1-513): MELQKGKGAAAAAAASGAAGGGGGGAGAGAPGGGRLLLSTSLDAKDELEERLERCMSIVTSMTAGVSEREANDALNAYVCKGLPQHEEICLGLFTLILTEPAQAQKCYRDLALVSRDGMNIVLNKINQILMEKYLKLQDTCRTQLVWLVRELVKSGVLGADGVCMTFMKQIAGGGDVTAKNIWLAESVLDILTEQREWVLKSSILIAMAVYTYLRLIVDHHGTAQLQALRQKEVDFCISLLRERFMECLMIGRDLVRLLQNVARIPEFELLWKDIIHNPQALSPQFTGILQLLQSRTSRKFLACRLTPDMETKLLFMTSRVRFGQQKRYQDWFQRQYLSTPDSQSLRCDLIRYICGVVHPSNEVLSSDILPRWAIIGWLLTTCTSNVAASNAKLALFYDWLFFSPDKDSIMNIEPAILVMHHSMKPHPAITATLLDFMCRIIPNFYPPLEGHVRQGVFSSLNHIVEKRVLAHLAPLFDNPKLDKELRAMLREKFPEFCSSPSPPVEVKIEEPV
# Test: pull-down; GST-INTS3^FL, -INTS3^N or -INTS3^C incubated with hNABP1/2 or C9ORF80 at 4 C for 1 h, then glutathione-agarose beads 1 h; eluted with 10 mM glutathione; Western blot
# Conditions: both partners purified
row,Binder,binding result
1,"Human nucleic acid-binding protein 1 (hNABP1) (natural protein, UniProt Q96AH0 1-204, looked up, also called hSSB2; source: also co-expressed (pET29a) with GST-INTS3 and C9ORF80 in E. coli Rosetta 2, in lysate) MNRVNDPLIFIRDIKPGLKNLNVVFIVLEIGRVTKTKDGHEVRSCKVADKTGSITISVWDEIGGLIQPGDIIRLTRGYASMWKGCLTLYTGRGGELQKIGEFCMVYSEVPNFSEPNPDYRGQQNKGAQSEQKNNSMNSNMGTGTFGPVGNGVHTGPESREHQFSHAGRSNGRGLINPQLQGTASNQTVMTTISNGRDPRRAFKR",binds
2,"Human nucleic acid-binding protein 2 (hNABP2) (natural protein, UniProt Q9BQ15 1-211, looked up, also called hSSB1; source: also co-expressed (pET29a) with GST-INTS3 and C9ORF80 in E. coli Rosetta 2, in lysate) MTTETFVKDIKPGLKNLNLIFIVLETGRVTKTKDGHEVRTCKVADKTGSINISVWDDVGNLIQPGDIIRLTKGYASVFKGCLTLYTGRGGDLQKIGEFCMVYSEVPNFSEPNPEYSTQQAPNKAVQNDSNPSASQPTTGPSAASPASENQNGNGLSAPPGPGGGPHPPHTPSHPPSTRITRSQPNHTPAGPPGPSSNPVSNGKETRRSSKR",binds
3,"C9ORF80, His-tagged (natural protein, human, UniProt Q9NRY2 1-104, looked up, C9ORF80, human cDNA clone; pET28a, NcoI/XhoI sites (this would give a C-terminal His tag); the printed masses fit the whole 104-residue protein; also called C9OFR80; source: peak 2); also co-expressed with GST-INTS3 and hNABP1/2 in E. coli Rosetta 2, in lysate) MAANSSGQGFQNKNRVAILAELDKEKRKLLMQNQSSTNHPGASIALSRPSLNKDFRDHAEQQHIAAQQKAALQHAHAHSSGYFITQDSAFGNLILPVLPRLDPE",binds
